In PMC3084267, “Antibody Engineering Using Phage Display with a Coiled-Coil Heterodimeric Fv Antibody Fragment” (PLoS ONE, 2011):
Residue numbers refer to the chain shown, from its start. Numbers in names are those of the source.

B1: X76 scFv (humanization lead) (scFv, V domains shown)
VH: EVQLVQSGGGVVQPGGSLRLSCAASGYTFTNYGMNWIRQAPGKGLEWVGWINTYTGEPTYAADFKRRVTFSLDTSKSTAYLQLNSLRAEDTAVYYCAKYPHYYGSSHWYFDVWGQGTLVTVSS
VL: DIQMTQSPSSLSASVGDRVTITCSASQDISNYLNWYQQKPGKAPKVLIYFTSSLHSGVPSRFSGSGSGTDFTLTISSLQPEDFATYYCQQYSTVPWTFGQGTKVEIK
notes: as the VH of m4 (WT) with the stated framework changes (Kabat numbering); scFv linker; VL paired with the VH humanization library; likely as the VL of m4; Selected as ccFv on phage, converted to scFv; source: Pichia pastoris X33 (pPIC6 alpha), culture supernatant, purified (Ni-NTA)
B2: X96 scFv (VH-CDR3 mutations of X65 in the X72 framework) (scFv, V domains shown)
VH: B1 VH with I37V, V68F, L83M, H101Y, S105R
VL: B1 VL
notes: as the VH of m7 (X72 framework) with the VH-CDR3 changes of X65; scFv linker; VL as in m7; likely as the VL of m4; source: Pichia pastoris X33 (pPIC6 alpha), culture supernatant, purified (Ni-NTA)
B3: X64 scFv (VH-CDR3 variant S100aR) (scFv, V domains shown)
VH: B1 VH with Q6E, V11L, I37V, V68F, L83M, S105R
VL: B1 VL
notes: as the VH of m4 (WT framework) with the stated VH-CDR3 change; scFv linker; Selected as ccFv on phage, converted to scFv; source: Pichia pastoris X33 (pPIC6 alpha), culture supernatant, purified (Ni-NTA)
B4: X97 scFv (VH-CDR3 mutations of X65 in the X76 framework) (scFv, V domains shown)
VH: B1 VH with H101Y, S105R
VL: B1 VL
notes: as the VH of m8 (X76 framework) with the VH-CDR3 changes of X65; scFv linker; VL as in m8; likely as the VL of m4; source: Pichia pastoris X33 (pPIC6 alpha), culture supernatant, purified (Ni-NTA)
B5: X78 scFv (humanization lead) (scFv, V domains shown)
VH: B1 VH with S17T, S21T, I37V, L83M
VL: B1 VL
notes: as for B1
B6: X63 scFv (VH-CDR3 variant H97Y, S100aT) (scFv, V domains shown)
VH: B1 VH with Q6E, V11L, I37V, V68F, L83M, H101Y, S105T
VL: B1 VL
notes: as the VH of m4 (WT framework) with the stated VH-CDR3 changes; scFv linker; Selected as ccFv on phage, converted to scFv; source: Pichia pastoris X33 (pPIC6 alpha), culture supernatant, purified (Ni-NTA)
B7: X65 scFv (VH-CDR3 variant H97Y, S100aR) (scFv, V domains shown)
VH: B1 VH with Q6E, V11L, I37V, V68F, L83M, H101Y, S105R
VL: B1 VL
notes: as the VH of m4 (WT framework) with the stated VH-CDR3 changes; scFv linker; Converted to scFv; source: Pichia pastoris X33 (pPIC6 alpha), culture supernatant, purified (Ni-NTA)

Legend:
[1] = biological target: T1, recombinant human VEGF (R&D Systems, 293-VE/CF) (Homo sapiens, UniProt P15692-4); assay: SPR; Biacore, 25°C; VEGF amine-coupled to a CM5 chip (about 300 RU); monomeric scFv (after Superdex 75) in PBS at 10, 20, 40, 80, 160 nM, 30 µl/min, 5 min association, 10 min dissociation; global fit to 1:1 Langmuir model; details: both partners purified
T1 construct: recombinant human VEGF, R&D Systems 293-VE/CF; also called VEGF antigen; source: bought: R&D Systems (293-VE/CF)

[2] = biological target: T1, recombinant human VEGF (R&D Systems, …); assay: SPR; Biacore, 35°C; VEGF amine-coupled to a CM5 chip (about 300 RU); monomeric scFv (after Superdex 75) in PBS at 10 to 160 nM; global fit to 1:1 Langmuir model; details: both partners purified

T1 sequence (P15692 whole entry): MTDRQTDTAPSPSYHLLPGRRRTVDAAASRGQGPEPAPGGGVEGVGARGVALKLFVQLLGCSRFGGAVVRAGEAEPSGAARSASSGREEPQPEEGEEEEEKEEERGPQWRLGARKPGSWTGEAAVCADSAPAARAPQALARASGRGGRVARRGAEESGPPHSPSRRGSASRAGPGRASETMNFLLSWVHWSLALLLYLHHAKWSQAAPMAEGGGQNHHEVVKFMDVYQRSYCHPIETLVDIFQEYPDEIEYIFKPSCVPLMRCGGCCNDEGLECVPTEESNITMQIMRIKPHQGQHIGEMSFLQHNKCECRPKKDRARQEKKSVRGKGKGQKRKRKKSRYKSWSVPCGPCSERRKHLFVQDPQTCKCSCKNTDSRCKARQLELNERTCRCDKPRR

Binder | Kd [1] | Kd [2]
B1 | 3.1 nM | –
B2 | – | 0.11 nM
B3 | 5.4 nM | –
B4 | – | 0.12 nM
B5 | 5.9 nM | –
B6 | 2.2 nM | –
B7 | 1.5 nM | –
